Reference: US20050059584A1, “Novel chemokine mimetics synthesis and their use” (priority 2002, published 2005)
Positions of bridges follow the written chain, without caps; N, C: chain ends.

Target: T1, CXCR4 receptor (Homo sapiens, UniProt P61073)
T1 construct: incubation of THP-1 cells with SDF-1; endogenous in cells; host or cells: THP-1 cells
Test: [Ca2+]i mobilization in fura-2,AM loaded THP-1 cells (FIG. 5, Table 6)
Format: cell-based
Settings: 1×10^6/ml
Procedure: Fura-2,AM loaded THP-1 cells (1×10^6/ml) were stimulated with SDF-1, Compound A or Compound K at the concentrations indicated. The values represent the mean ± one S.D. of n=3 experiments.
Fura-2,AM loaded THP-1 cells (1×10^6/ml) were stimulated with native SDF-1 and the SDF-1 peptide analogs at the concentration of native SDF-1 concentration that gave the maximum [Ca^2+]1 stimulation (1 μM). The values represent the mean ± one S.D. of n=3 experiments.
This example illustrates the efficacy of SDF-1 and SDF-1 peptide analogs in mediating intracellular calcium mobilization ([Ca^2+]i). To illustrate that the binding of SDF-1 and SDF-1 peptide analogs results in the agonistic induction of the CXCR4 receptor, [Ca^2+]i mobilization assays were conducted, the results of which are shown in FIG. 5. To obtain the data shown in FIG. 5, fura-2,AM loaded THP-1 cells (1×10^6/ml) were stimulated with Compound A/SDF-1, SDF-1(1-14)-(G)4-SDF-1(55-67) Lys20/Glu24-cyclic amide (SEQ ID NO:809) or Compound K/SDF-1(1-14)-(G)4-SDF-1(55-67)-Glu24/Lys28-cyclic amide (SEQ ID NO:803) at the concentrations indicated (the values represent the mean ± one S.D. of n=3 experiments). […]

T1 sequence (P61073 whole entry): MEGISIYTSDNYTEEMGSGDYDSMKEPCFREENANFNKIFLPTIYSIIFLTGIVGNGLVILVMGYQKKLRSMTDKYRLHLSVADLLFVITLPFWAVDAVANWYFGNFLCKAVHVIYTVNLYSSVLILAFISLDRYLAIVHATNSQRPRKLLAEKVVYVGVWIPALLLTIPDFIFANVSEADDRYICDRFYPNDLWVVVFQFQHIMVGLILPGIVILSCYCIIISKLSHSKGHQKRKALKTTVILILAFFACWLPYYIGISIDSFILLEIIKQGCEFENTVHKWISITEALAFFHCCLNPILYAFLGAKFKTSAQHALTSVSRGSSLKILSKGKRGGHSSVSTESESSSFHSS

Substance: H2N-Lys-Pro-Val-Ser-Leu-Ser-Tyr-Arg-Cys-Pro-Cys-Arg-Phe-Phe-[Gly-Gly-Gly-Gly]-Leu-Lys-Trp-Ile-Gln-Glu-Tyr-Leu-Glu-Lys-Ala-Leu-Asn-NH2 (H-KPVSLSYRCPCRFFGGGGLKWIQEYLEKALN-NH2; lactam 20-24; cysteine pairing not given here) [Compound A]
- EC50: 148 nM
